The record followed here is US20250270301A1.

Assay [1] addresses aggregated (oligomeric) P301S 2N4R tau, pHrodo-labelled (human) (UniProt P10636). As to the kind of experiment: cell-based or functional assay.
Assay [2] has as its target monomeric P301S 2N4R tau, pHrodo-labelled (human) (UniProt P10636). As to the kind of experiment: cell-based or functional assay.

Chain of monomeric P301S 2N4R tau, pHrodo-labelled (human) (P10636 other isoform, or with tags, fused parts or gaps P301S P301S): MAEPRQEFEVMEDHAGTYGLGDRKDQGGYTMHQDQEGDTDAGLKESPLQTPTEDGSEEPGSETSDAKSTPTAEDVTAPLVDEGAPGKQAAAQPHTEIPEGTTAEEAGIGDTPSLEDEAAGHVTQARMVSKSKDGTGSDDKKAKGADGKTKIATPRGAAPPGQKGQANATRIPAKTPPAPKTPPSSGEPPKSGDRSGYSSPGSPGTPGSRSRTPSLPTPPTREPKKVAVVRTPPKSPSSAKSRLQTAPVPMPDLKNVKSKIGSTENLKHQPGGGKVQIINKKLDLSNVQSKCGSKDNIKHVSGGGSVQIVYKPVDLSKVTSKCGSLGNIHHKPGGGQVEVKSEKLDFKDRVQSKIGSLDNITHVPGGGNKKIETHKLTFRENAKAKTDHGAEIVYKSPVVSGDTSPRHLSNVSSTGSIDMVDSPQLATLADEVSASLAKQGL
Chain of aggregated (oligomeric) P301S 2N4R tau, pHrodo-labelled (human) (P10636 other isoform, or with tags, fused parts or gaps P301S P301S): as above

Take “isotype control human IgG1 (anti-fluorescein, Absolute Antibody)”: the inhibition of aggregated tau uptake into human iPSC-derived neurons in assay [1] was determined as 14.3%. In assay [2], this substance yielded an inhibition of monomeric tau uptake into human iPSC-derived neurons of 6.2%.
